pKd: −log10 of the molar value.

In patent US20030109691A1 one finds Kd data, which are given here for two substances.

The target in one test is CD54 (ICAM-1) (UniProt P05362). Description: SPR (BIAcore), CD54 on CM5 chip, A domain flowed; linear transformation, mean±SD, n=2.
Test [1] addresses complement iC3b (UniProt P01024). Description: SPR (BIAcore), iC3b on CM5 chip, A domain flowed; linear transformation, mean±SD, n=2. For orientation: In SPR one partner is held on a chip, and binding of the other changes the refractive index at the surface.
The next test addresses fibrinogen (UniProt P02671). Briefly: SPR (BIAcore), fibrinogen on CM5 chip, A domain flowed; linear transformation, mean±SD, n=2.
The target in test [2] is complement iC3b (UniProt P01024). Description: SPR (BIAcore), iC3b on CM5 chip, A domain flowed.

CD54 (ICAM-1), sequence (P05362 28-480 limits assumed): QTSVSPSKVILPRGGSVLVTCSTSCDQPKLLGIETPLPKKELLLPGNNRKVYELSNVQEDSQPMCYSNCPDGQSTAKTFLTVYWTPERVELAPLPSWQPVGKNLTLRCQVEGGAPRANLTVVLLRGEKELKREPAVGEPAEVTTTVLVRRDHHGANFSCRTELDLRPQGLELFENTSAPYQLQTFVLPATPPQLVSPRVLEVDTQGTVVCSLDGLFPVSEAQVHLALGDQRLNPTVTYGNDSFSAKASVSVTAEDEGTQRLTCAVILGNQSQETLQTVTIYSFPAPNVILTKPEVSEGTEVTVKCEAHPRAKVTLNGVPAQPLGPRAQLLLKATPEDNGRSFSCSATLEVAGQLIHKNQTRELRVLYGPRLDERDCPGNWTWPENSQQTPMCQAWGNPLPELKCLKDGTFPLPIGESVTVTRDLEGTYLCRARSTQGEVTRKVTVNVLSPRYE
fibrinogen, sequence (P02671 20-629 limits assumed, chain 1 of 3): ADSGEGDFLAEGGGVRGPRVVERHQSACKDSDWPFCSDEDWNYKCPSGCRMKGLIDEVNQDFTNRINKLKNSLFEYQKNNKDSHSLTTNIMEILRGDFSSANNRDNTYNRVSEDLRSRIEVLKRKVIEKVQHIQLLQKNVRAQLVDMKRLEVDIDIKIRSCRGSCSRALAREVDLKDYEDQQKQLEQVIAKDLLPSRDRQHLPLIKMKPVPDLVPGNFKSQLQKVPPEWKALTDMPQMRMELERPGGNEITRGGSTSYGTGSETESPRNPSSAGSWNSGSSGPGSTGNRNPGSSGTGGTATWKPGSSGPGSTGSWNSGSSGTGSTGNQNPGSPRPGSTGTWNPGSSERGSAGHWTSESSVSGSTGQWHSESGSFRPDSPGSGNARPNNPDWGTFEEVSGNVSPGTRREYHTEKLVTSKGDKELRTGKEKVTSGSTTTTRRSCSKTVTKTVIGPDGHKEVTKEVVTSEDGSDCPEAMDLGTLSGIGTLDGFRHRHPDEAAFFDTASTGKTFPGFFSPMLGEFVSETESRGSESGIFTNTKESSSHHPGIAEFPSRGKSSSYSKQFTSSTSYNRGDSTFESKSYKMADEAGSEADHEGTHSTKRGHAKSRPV
fibrinogen, sequence (P02675 31-491 limits assumed, chain 2 of 3, further chain): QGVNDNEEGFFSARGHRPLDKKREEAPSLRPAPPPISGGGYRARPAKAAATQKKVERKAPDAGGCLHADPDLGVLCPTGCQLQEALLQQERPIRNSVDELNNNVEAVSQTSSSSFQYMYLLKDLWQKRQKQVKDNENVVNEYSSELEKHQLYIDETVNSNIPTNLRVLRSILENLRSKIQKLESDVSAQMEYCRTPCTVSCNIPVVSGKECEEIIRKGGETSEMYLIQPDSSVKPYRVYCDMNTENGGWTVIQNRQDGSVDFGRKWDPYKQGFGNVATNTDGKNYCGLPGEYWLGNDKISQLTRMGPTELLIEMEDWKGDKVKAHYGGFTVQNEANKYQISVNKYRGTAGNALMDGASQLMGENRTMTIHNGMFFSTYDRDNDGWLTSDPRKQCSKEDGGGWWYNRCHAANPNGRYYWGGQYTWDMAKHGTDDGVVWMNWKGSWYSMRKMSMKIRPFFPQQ
fibrinogen, sequence (P02679 other isoform, or with tags, fused parts or gaps limits assumed, chain 3 of 3, further chain): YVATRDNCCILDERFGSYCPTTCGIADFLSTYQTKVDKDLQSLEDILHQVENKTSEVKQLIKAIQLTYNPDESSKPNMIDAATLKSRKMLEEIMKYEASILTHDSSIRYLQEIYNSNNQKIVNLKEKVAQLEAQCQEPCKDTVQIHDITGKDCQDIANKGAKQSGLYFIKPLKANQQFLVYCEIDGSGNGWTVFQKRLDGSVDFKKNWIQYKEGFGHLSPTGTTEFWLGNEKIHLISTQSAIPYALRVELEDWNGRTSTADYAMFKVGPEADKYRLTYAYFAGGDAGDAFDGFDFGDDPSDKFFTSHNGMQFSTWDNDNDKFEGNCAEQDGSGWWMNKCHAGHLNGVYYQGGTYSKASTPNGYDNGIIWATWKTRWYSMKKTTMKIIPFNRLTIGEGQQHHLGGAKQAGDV

In general, pKd refers to the negative decadic logarithm of the Kd, by convention in mol/L. As to “variant CD11b A domain consisting of amino acids E123 to K315 (11bA^123-315) (from UniProt P11215 139-331) (receptor)”, the pKd was 6.66 with CD54 (ICAM-1), 6.34 with complement iC3b [1] and 6.60 with fibrinogen.

“variant CD11b A domain with an Ile to Gly change at residue 316 (11bA^I→G) (from UniProt P11215 139-337) (receptor)”: the pKd in the test with complement iC3b [2] was 6.18.
